Results as given in patent US5795865A, “Kallikrein-inhibiting "kunitz domain" proteins and analogues thereof” (Dyax Corp., priority 1996, dated 1998).
Read-outs that look alike come from different tables or passages of the source.

What was measured:
plasma kallikrein (pKA) = plasma kallikrein (pKA) (Homo sapiens, UniProt P03952); assay: Inhibition of human plasma kallikrein (measured Ki taken as KD), yeast-expressed purified proteins; format: biochemical; design: Hydrolysis of the Arg371 -Ile372 peptide bond yields a two-chain proteinase joined by a disulfide bond; settings: for Ki: preliminary measurements
Description: (§1) A second appropriate method of measuring KD is to measure the inhibitor activity against the enzyme. […] For the proteins of this invention, having KD in the range 5 nM to 50 pM, nanograms to micrograms of inhibitor suffice. When using this method, the competition between the inhibitor and the enzyme substrate can give a measured Ki that is higher than the true Ki. Measurement reported here are not so corrected because the correction would be very small and the any correction would reduce the Ki. Here, we use the measured Ki as a direct measure of KD.
The three isolates KKII/3#6, KK2/#11, and KK2/#13 were recloned into a yeast expression vector. The yeast expression vector is derived from pMFalpha8 (KURJ82 and MIYA85). The LACI variant genes were fused to part of the matα 1 gene, generating a hybrid gene consisting of the matα 1 promoter-signal peptide and leader sequence-fused to the LACI variant. Note that the correctly processed LACI-K1 variant protein should be as detailed in Table 2 with the addition of residues glu-ala-ala-glu (SEQ ID NO: 70) to the N-terminal met (residue 1 in Table 2). Expression in S. cerevisiae gave acceptable yield typical of this system.

human plasma Kallikrein = target: T1, human plasma Kallikrein (Homo sapiens, UniProt P03952); assay: Binding of display-phage to kallikrein-agarose beads (Table 8); settings: for Relative Binding: fraction bound relative to the parental display-phage, LACI-K1; for Fraction Bound: pfu's eluted as a fraction of the input number (10^10 pfu's)
T1 construct: Hydrolysis of the Arg371 -Ile372 peptide bond yields a two-chain proteinase joined by a disulfide bond; purchased Calbiochem 420302
Description: This method is highly sensitive because the genetic packages can be amplified. We obtain at least semiquantitative values for the binding constants by use of a pH step gradient. […] Any other suitable method of measuring protein binding may be used.
The overall scheme for selecting a LACI-K1 variant to bind to a given protease involves incubation of the phage-display library with the kallikrein-beads of interest in a buffered solution (PBS containing 1 mg/ml BSA) followed by washing away the unbound and poorly retained display-phage variant with PBS containing 0.1% Tween 20. Kallikrein beads were made by coupling human plasma Kallikrein (Calbiochem, San Diego, Calif., # 420302) to agarose beads using Reactigel (6x) (Pierce, Rockford, II, #202606). The more strongly bound display-phage are eluted with a low pH elution buffer, typically citrate buffer (pH 2.0) containing 1 mg/ml BSA, which is immediately neutralized with Tris buffer to pH 7.5. This process constitutes a single round of selection.

plasmin = plasmin (Homo sapiens, UniProt P00747); assay: Inhibition of plasmin (Ki); format: biochemical
Description: as §1

[1] = about 840 mg, 80 open-heart surgery patients, FRAE89; cited from earlier work
[2] = not corrected for substrate competition, read-out: Ki for plasma kallikrein (pKA)
[3] = stated as 'probably less than', read-out: Ki for plasma kallikrein (pKA), probable bound

plasma kallikrein (pKA), sequence (P03952 391-638 limits assumed): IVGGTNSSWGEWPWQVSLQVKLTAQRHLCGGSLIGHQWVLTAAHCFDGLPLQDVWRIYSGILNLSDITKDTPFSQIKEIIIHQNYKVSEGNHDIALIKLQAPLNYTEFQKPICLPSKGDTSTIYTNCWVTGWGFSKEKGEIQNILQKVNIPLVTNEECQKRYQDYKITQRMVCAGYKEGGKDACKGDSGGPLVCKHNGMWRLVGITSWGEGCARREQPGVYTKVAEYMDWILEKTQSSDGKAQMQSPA
plasma kallikrein (pKA), sequence (P03952 20-390 partner limits assumed): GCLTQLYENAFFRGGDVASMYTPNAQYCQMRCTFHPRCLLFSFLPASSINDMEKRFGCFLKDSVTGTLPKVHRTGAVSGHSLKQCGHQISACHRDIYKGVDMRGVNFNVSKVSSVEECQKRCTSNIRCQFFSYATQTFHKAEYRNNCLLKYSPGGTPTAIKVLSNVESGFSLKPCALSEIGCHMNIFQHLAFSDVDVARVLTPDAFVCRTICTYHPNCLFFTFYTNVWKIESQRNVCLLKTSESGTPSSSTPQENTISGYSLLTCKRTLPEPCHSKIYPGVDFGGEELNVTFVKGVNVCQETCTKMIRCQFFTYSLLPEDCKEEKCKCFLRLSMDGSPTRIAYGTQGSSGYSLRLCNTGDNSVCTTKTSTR
T1 sequence (P03952 391-638 limits assumed): as the sequence (P03952 391-638 limits assumed) above
T1 sequence (P03952 20-390 partner limits assumed): as the sequence (P03952 20-390 partner limits assumed) above
plasmin, sequence (P00747 581-810 limits assumed): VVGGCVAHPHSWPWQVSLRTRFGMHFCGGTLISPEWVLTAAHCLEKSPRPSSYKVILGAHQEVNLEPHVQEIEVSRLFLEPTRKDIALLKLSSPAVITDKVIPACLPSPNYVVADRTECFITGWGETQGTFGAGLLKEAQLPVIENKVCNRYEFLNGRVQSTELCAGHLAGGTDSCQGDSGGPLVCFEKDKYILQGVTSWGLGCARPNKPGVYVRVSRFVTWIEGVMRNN
plasmin, sequence (P00747 97-580 partner limits assumed): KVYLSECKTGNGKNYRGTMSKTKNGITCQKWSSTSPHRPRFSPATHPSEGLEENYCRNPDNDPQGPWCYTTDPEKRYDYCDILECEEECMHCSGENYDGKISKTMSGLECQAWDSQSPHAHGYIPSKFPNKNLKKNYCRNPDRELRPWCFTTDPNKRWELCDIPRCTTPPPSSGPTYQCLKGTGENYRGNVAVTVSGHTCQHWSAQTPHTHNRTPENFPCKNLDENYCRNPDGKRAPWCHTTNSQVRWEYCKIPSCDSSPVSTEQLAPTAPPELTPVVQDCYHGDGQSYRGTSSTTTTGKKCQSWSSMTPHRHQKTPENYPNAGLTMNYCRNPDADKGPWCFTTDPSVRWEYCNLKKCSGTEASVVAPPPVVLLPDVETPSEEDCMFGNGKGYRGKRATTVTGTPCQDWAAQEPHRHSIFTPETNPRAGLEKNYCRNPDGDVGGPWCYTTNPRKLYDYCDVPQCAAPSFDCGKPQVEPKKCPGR

Substance	Ki (plasma kallikrein (pKA); [2]) [nM]	Ki (plasma kallikrein (pKA); [3]) [nM]	Relative Binding (human plasma Kallikrein)	Fraction Bound (human plasma Kallikrein)	other results
KK2/#13: second-library LACI-K1 variant Kunitz domain, SEQ ID NO. 19 (MHSFCAFKADGGRCRGAHPRWFFNIFTRQCEEFSYGGCGGNQNRFESLEECKKMCTRD)	< 0.3	< 0.1	–	–	–
KKII/3#6: lead pKA inhibitor, LACI-K1 variant Kunitz domain, SEQ ID NO. 10 (MHSFCAFKADDGHCKANHQRFFFNIFTRQCEEFSYGGCGGNQNRFESLEECKKMCTRD)	~0.3	< 0.5	2071	8.7 × 10^-3	Ki for kallikrein relative to wild-type LACI and BPTI (times) (plasma kallikrein (pKA); versus both wild-type LACI and BPTI): over 100 times; Ki (plasmin): 10000 nM
LACI-K1: first Kunitz domain of human LACI (residues 50 to 107), parental molecule, SEQ ID NO. 3 (MHSFCAFKADDGPCKAIMKRFFFNIFTRQCEEFIYGGCEGNQNRFESLEECKKMCTRD) [reference compound]	–	–	–	4.2 × 10^-6	–
bovine pancreatic trypsin inhibitor [BPTI]	–	–	–	2.5 × 10^-5	decrease of mean amount transfused [1]: 74%

Continued, in another order:

Ki (plasma kallikrein (pKA); [2]) [nM]	Ki (plasma kallikrein (pKA); [3]) [nM]	Relative Binding (human plasma Kallikrein)	Fraction Bound (human plasma Kallikrein)	Substance	other results
< 0.3	< 0.1	–	–	KK2/#11: second-library LACI-K1 variant Kunitz domain, SEQ ID NO. 22 (MHSFCAFKADDGPCRAAHPRWFFNIFTRQCEEFSYGGCGGNQNRFESLEECKKMCTRD)	–
–	–	761	3.2 × 10^-3	KKI/3(a): LACI-K1 variant Kunitz domain, phase I selectant, SEQ ID NO. 15 (MHSFCAFKADDGRCKGAHLRFFFNIFTRQCEEFIYGGCEGNQNRFESLEECKKMCTRD)	–
–	–	524	2.2 × 10^-3	KKI/3(b): LACI-K1 variant Kunitz domain, phase I selectant, SEQ ID NO. 16 (MHSFCAFKADDGPCKAIHLRFFFNIFTRQCEEFIYGGCEGNQNRFESLEECKKMCTRD)	–
–	–	928	3.9 × 10^-3	KKII/3#5: LACI-K1 variant Kunitz domain, SEQ ID NO. 9 (MHSFCAFKADDGHCKASLPRFFFNIFTRQCEEFIYGGCGGNQNRFESLEECKKMCTRD)	–
